Measured values published in the supplement of paper PMC9112550, “Optimization of the antimicrobial peptide Bac7 by deep mutational scanning” (BMC Biology, 2022).
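Also: peptides expressed intracellularly from a pBAD plasmid library in pooled LB shake-flask culture, induced with 0.3% L-arabinose, DNA abundance read by NGS, three biological replicates, DESeq2 with apeglm shrinkage.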

The sequences below were run on Escherichia coli TOP10 (assay: shrunken log2 fold change of peptide-encoding DNA abundance (4.5 h post-induction vs induction); higher = less antimicrobial activity (less host growth inhibition)). Conditions: time post-induction: 4.5 h; library: site-saturation at positions 5, 18, 19, 20.
For RRIRWRPPRLPRPRPRPAPGPRP, the “shrunken log2 fold change” value was 0.634. With RRIRPRPPRLPRPRPRPEFKPRP the “shrunken log2 fold change” value was 0.26. In the case of RRIRDRPPRLPRPRPRPREYPRP, the “shrunken log2 fold change” value is reported as 0.306. With RRIRPRPPRLPRPRPRPTLLPRP the “shrunken log2 fold change” value was -0.0649. With RRIRHRPPRLPRPRPRPRKYPRP the “shrunken log2 fold change” value was -0.556. For RRIRVRPPRLPRPRPRPKLPPRP, the “shrunken log2 fold change” value was -0.266. For RRIRERPPRLPRPRPRPDIVPRP, the “shrunken log2 fold change” value was -0.158. In the case of RRIRERPPRLPRPRPRPPDWPRP, the “shrunken log2 fold change” value is reported as 0.674. With RRIRTRPPRLPRPRPRPCIEPRP the “shrunken log2 fold change” value was -0.183. For RRIRERPPRLPRPRPRPFTRPRP, the “shrunken log2 fold change” value was -0.0106. For RRIRERPPRLPRPRPRPVEPPRP, the “shrunken log2 fold change” value was 0.0248. RRIRTRPPRLPRPRPRPQLHPRP was tested, and the “shrunken log2 fold change” value was 0.0211. In the case of RRIRDRPPRLPRPRPRPGVGPRP, the “shrunken log2 fold change” value is reported as 0.519. With RRIRFRPPRLPRPRPRPETAPRP the “shrunken log2 fold change” value was 0.577. In the case of RRIRDRPPRLPRPRPRPPQMPRP, the “shrunken log2 fold change” value is reported as 0.746. RRIRLRPPRLPRPRPRPHAQPRP was tested, and the “shrunken log2 fold change” value was 0.133. In the case of RRIRHRPPRLPRPRPRPLKPPRP, the “shrunken log2 fold change” value is reported as 0.18. RRIRYRPPRLPRPRPRPTAKPRP was tested, and the “shrunken log2 fold change” value was 0.0338. RRIRCRPPRLPRPRPRPQVTPRP was tested, and the “shrunken log2 fold change” value was -0.102. For RRIRKRPPRLPRPRPRPLNFPRP, the “shrunken log2 fold change” value was 0.103. For RRIRERPPRLPRPRPRPVTDPRP, the “shrunken log2 fold change” value was -0.069. In the case of RRIRNRPPRLPRPRPRPYVKPRP, the “shrunken log2 fold change” value is reported as -0.626. RRIRMRPPRLPRPRPRPEFEPRP was tested, and the “shrunken log2 fold change” value was -0.0141. For RRIRWRPPRLPRPRPRPGGAPRP, the “shrunken log2 fold change” value was 0.691. For RRIRQRPPRLPRPRPRPFSVPRP, the “shrunken log2 fold change” value was -0.199. In the case of RRIRNRPPRLPRPRPRPLDIPRP, the “shrunken log2 fold change” value is reported as 0.0164. With RRIRQRPPRLPRPRPRPCRDPRP the “shrunken log2 fold change” value was 0.0161. RRIRCRPPRLPRPRPRPLIQPRP was tested, and the “shrunken log2 fold change” value was -0.457. In the case of RRIRQRPPRLPRPRPRPAVSPRP, the “shrunken log2 fold change” value is reported as -0.0348. RRIRDRPPRLPRPRPRPQRHPRP was tested, and the “shrunken log2 fold change” value was 0.0682. With RRIRRRPPRLPRPRPRPHNCPRP the “shrunken log2 fold change” value was 0.163. RRIRPRPPRLPRPRPRPVSLPRP was tested, and the “shrunken log2 fold change” value was -0.104. For RRIRWRPPRLPRPRPRPYERPRP, the “shrunken log2 fold change” value was -0.0653. RRIRNRPPRLPRPRPRPIKIPRP was tested, and the “shrunken log2 fold change” value was -0.357. With RRIRPRPPRLPRPRPRPHLGPRP the “shrunken log2 fold change” value was 0.088. In the case of RRIRIRPPRLPRPRPRPGTDPRP, the “shrunken log2 fold change” value is reported as -0.114. With RRIRHRPPRLPRPRPRPHIIPRP the “shrunken log2 fold change” value was -0.192. RRIRHRPPRLPRPRPRPKIPPRP was tested, and the “shrunken log2 fold change” value was -0.254. With RRIRMRPPRLPRPRPRPFKKPRP the “shrunken log2 fold change” value was 0.0258. In the case of RRIRLRPPRLPRPRPRPPKKPRP, the “shrunken log2 fold change” value is reported as 0.265. RRIRTRPPRLPRPRPRPAISPRP was tested, and the “shrunken log2 fold change” value was 0.09. For RRIRFRPPRLPRPRPRPRQCPRP, the “shrunken log2 fold change” value was -0.123. For RRIRKRPPRLPRPRPRPWWCPRP, the “shrunken log2 fold change” value was 0.0624. RRIRVRPPRLPRPRPRPYFYPRP was tested, and the “shrunken log2 fold change” value was -0.474. RRIRYRPPRLPRPRPRPEDFPRP was tested, and the “shrunken log2 fold change” value was -0.00133. RRIRMRPPRLPRPRPRPHPWPRP was tested, and the “shrunken log2 fold change” value was 0.227. RRIRRRPPRLPRPRPRPEWIPRP was tested, and the “shrunken log2 fold change” value was 0.361. For RRIRARPPRLPRPRPRPLAHPRP, the “shrunken log2 fold change” value was 0.296. RRIRDRPPRLPRPRPRPPKKPRP was tested, and the “shrunken log2 fold change” value was 0.0806. With RRIRKRPPRLPRPRPRPPVYPRP the “shrunken log2 fold change” value was 0.387. With RRIRHRPPRLPRPRPRPENIPRP the “shrunken log2 fold change” value was -0.0173. RRIRQRPPRLPRPRPRPNCKPRP was tested, and the “shrunken log2 fold change” value was -0.555. For RRIRTRPPRLPRPRPRPTRVPRP, the “shrunken log2 fold change” value was 0.214. With RRIRHRPPRLPRPRPRPMLFPRP the “shrunken log2 fold change” value was -0.0839. RRIRNRPPRLPRPRPRPVSKPRP was tested, and the “shrunken log2 fold change” value was 0.124. With RRIRGRPPRLPRPRPRPPFLPRP the “shrunken log2 fold change” value was 0.444. For RRIRFRPPRLPRPRPRPWDFPRP, the “shrunken log2 fold change” value was -0.0975. For RRIRNRPPRLPRPRPRPMSSPRP, the “shrunken log2 fold change” value was -0.123. For RRIRFRPPRLPRPRPRPHLIPRP, the “shrunken log2 fold change” value was -0.415. With RRIRFRPPRLPRPRPRPWQPPRP the “shrunken log2 fold change” value was 0.0512. For RRIRNRPPRLPRPRPRPDLFPRP, the “shrunken log2 fold change” value was -0.00884. For RRIRNRPPRLPRPRPRPLHQPRP, the “shrunken log2 fold change” value was -0.112. In the case of RRIRLRPPRLPRPRPRPNQIPRP, the “shrunken log2 fold change” value is reported as -0.253. RRIRIRPPRLPRPRPRPVPAPRP was tested, and the “shrunken log2 fold change” value was 0.0984. With RRIRVRPPRLPRPRPRPSYWPRP the “shrunken log2 fold change” value was -0.341. In the case of RRIRIRPPRLPRPRPRPNDNPRP, the “shrunken log2 fold change” value is reported as -0.912. With RRIRARPPRLPRPRPRPKVIPRP the “shrunken log2 fold change” value was 0.116. RRIRPRPPRLPRPRPRPRNAPRP was tested, and the “shrunken log2 fold change” value was 0.39. For RRIRSRPPRLPRPRPRPWFMPRP, the “shrunken log2 fold change” value was -0.86. For RRIRYRPPRLPRPRPRPKRLPRP, the “shrunken log2 fold change” value was -0.102. In the case of RRIRCRPPRLPRPRPRPALQPRP, the “shrunken log2 fold change” value is reported as 0.313. With RRIRHRPPRLPRPRPRPGWYPRP the “shrunken log2 fold change” value was -0.018. In the case of RRIRTRPPRLPRPRPRPIHKPRP, the “shrunken log2 fold change” value is reported as -0.281. RRIRCRPPRLPRPRPRPTLVPRP was tested, and the “shrunken log2 fold change” value was 0.12. With RRIRGRPPRLPRPRPRPHQEPRP the “shrunken log2 fold change” value was 0.305.
